{"source": "patent US20250289893A1", "about": "(OXFORD UNIVERSITY INNOVATION, published 2025)", "binders": {"B1": {"name": "116 (VR12117) (antibody, V domains shown)", "VH": "QSVEESGGRLVTPGTPLTLTCTVSGFSLSNYAMSWVRQAPGKGLEWIGIIYTTGFTYYASWVKGRFTISKTSTTVDLKITSPTTEDTATYFCARGLATYVSPPTRLDLWGQGTLVTVSS", "VL": "AQVLTQTPSPVSAAVGGTVTINCQASQSIYNSKNLAWYQQKPGQPPKLLIYSASTLASGVPSRFKGSGSGTQFTLTISDLECDDAATYYCQGEFSCSSVDCATFGGGTEVVVK", "notes": "also called OX116"}}, "key": {"[1]": {"target": "T1, human CD1a protein (pool B) (human, UniProt P06126 18-295, limits assumed)", "T1 construct": "Recombinant protein of the ELISA (coated) and the Biacore T200 titration; whole entry named; also called human CD1a pool B; full length CD1a", "T1 sequence (P06126 18-295 limits assumed)": "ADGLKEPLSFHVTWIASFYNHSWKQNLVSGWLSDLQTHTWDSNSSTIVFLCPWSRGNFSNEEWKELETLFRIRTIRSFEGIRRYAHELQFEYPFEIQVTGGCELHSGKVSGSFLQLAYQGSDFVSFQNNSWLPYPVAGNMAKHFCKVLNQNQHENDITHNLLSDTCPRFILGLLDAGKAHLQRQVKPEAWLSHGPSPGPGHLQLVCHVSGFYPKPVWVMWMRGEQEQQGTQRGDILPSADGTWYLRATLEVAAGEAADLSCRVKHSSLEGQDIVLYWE", "assay": "ELISA, 0.316 µg/ml antibody", "procedure": "(§1) CD1a-specific antibodies were identified by ELISA. […] 20 μl/well of peroxidase-conjugated goat anti-species IgG Fc-specific F(ab′)2 fragment (Jackson ImmunoResearch), diluted 1:5000 in block buffer was added and incubated at room temperature for 1 hour, followed by washing with wash buffer.\n(§2) The antibodies were titrated through a dilution series and compared to a control rabbit IgG antibody."}, "[2]": {"target": "T2, human CD1d expressed on HEK-293 cells (human, UniProt P15813 20-335; P61769 21-119)", "T2 construct": "also called HEK - CD1d", "assay": "flow cytometry, HEK-293 cells", "procedure": "(§3) Binding to proteins expressed on HEK, C1R and MOLT4 cell lines was assessed. […] The C1R-CD1a, C1R-empty vector and MOLT4 cell lines were washed in 1×PBS on the day required. All cell lines were counted and resuspended in 1×PBS and then stained for 30 minutes at 37° C. using the DiI or DiO cellular stains (Invitrogen). Cells were washed with flow cytometry buffer (1% bovine serum albumin, 2 mM EDTA and 0.1% sodium azide in PBS) before mixing 2 DiI-stained and DiO-stained populations together. The cells (20 μl/well) were then added to dilutions of antibody sample (B cell culture supernatant, TAP supernatant, clone supernatant, purified antibody solution) (20 μl/well) and incubated for 1 hour at 4° C. in a flow cytometry assay plate, before being washed with flow cytometry buffer. 10 μl/well of Alexafluor647-conjugated goat anti-species IgG Fc-specific F(ab′)2 fragment (Jackson ImmunoResearch), diluted 1:2500 in flow cytometry buffer, was added and incubated at 4° C. for 30 minutes, followed by washing with wash buffer. The fluorescence intensity was then measured on an iQue screener PLUS.\n(§4) HEK-293 cells were transiently transfected with human CD1a, CD1b, CD1c or CD1d and co-transfected with human β2M."}, "[3]": {"target": "T3, human CD1c expressed on HEK-293 cells (human, UniProt P29017 18-333; P61769 21-119)", "T3 construct": "also called HEK - CD1c", "assay": "flow cytometry, HEK-293 cells", "procedure": "as §3, §4"}, "[4]": {"target": "T4, human CD1b expressed on HEK-293 cells (human, UniProt P29016 18-333; P61769 21-119)", "T4 construct": "also called HEK - CD1b", "assay": "flow cytometry, HEK-293 cells", "procedure": "as §3, §4"}, "[5]": {"target": "Chinese variant CD1a protein (human) (UniProt P06126)", "sequence (P06126 18-295, change not shown)": "as the sequence (P06126 18-295 limits assumed) above", "assay": "ELISA, 1 µg/ml antibody"}, "[6]": {"target": "T1, human CD1a protein (pool B)", "assay": "ELISA, 10 µg/ml antibody", "procedure": "as §1, §2"}, "[7]": {"target": "T5, human CD1a expressed on cells (human, UniProt P06126 17-327; P61769 21-119)", "T5 construct": "also called HEK - CD1a; C1R - CD1a", "assay": "flow cytometry, MOLT4 cells, 31.6 µg/ml antibody", "procedure": "(§5) CD1a-specific antibodies were identified by flow cytometry. Binding to proteins expressed on HEK, C1R and MOLT4 cell lines was assessed. […] The C1R-CD1a, C1R-empty vector and MOLT4 cell lines were washed in 1×PBS on the day required. All cell lines were counted and resuspended in 1×PBS and then stained for 30 minutes at 37° C. using the DiI or DiO cellular stains (Invitrogen). Cells were washed with flow cytometry buffer (1% bovine serum albumin, 2 mM EDTA and 0.1% sodium azide in PBS) before mixing 2 DiI-stained and DiO-stained populations together. The cells (20 μl/well) were then added to dilutions of antibody sample (B cell culture supernatant, TAP supernatant, clone supernatant, purified antibody solution) (20 μl/well) and incubated for 1 hour at 4° C. in a flow cytometry assay plate, before being washed with flow cytometry buffer. 10 μl/well of Alexafluor647-conjugated goat anti-species IgG Fc-specific F(ab′)2 fragment (Jackson ImmunoResearch), diluted 1:2500 in flow cytometry buffer, was added and incubated at 4° C. for 30 minutes, followed by washing with wash buffer. The fluorescence intensity was then measured on an iQue screener PLUS.\n(§6) Binding was quantified as fold change in fluorescence intensity geomean over background assessed by flow cytometry."}, "[8]": {"target": "T5, human CD1a expressed on cells", "assay": "flow cytometry, C1R cells, 10 µg/ml antibody", "procedure": "as §3, §6"}, "[9]": {"target": "T1, human CD1a protein (pool B)", "assay": "ELISA, 3.16 µg/ml antibody", "procedure": "as §1, §2"}, "[10]": {"target": "T6, Cynomolgus monkey CD1a protein (Cynomolgus monkey)", "T6 chain": "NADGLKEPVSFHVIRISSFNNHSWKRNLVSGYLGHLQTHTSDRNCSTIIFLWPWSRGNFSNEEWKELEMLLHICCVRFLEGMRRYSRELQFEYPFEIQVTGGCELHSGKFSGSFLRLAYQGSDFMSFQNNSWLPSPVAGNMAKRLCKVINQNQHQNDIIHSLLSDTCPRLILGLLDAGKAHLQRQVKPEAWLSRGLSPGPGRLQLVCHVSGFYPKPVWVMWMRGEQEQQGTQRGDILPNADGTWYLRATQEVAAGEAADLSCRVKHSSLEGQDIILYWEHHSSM", "assay": "ELISA, 0.1 µg/ml antibody"}, "[11]": {"target": "T1, human CD1a protein (pool B)", "assay": "SPR (Biacore T200), antibody captured, human CD1a titrated, 1:1 binding model", "procedure": "The affinity of the purified antibodies to human CD1a was assessed using a Biacore T200 instrument (GE Healthcare) by capturing the antibody to an immobilized anti-species IgG F(ab′)2 followed by titration of human CD1a. Affinipure Goat anti-species IgG-F(ab′)2 fragment specific (Jackson ImmunoResearch) was immobilized on a CM5 Sensor Chip (GE Healthcare) via amine coupling chemistry to a capture level of ˜5000 response units (RUs). HBS-EP+ buffer (10 mM HEPES pH 7.4, 0.15 M NaCl, 3 mM EDTA, 0.05% Surfactant P20, GE Healthcare) was used as the running buffer with a flow rate of 10 μL/min. A 10 μL injection of test antibody at 0.5 μg/mL was used for capture by the immobilized Goat Anti-species Fab.\nThe surface was regenerated between cycles by injection of 2×10 μL of 40 mM HCl, interspersed by a 10 μL injection of 5 mM NaOH at flowrate of 10 μL/min. Background subtraction binding curves were analyzed using the Biacore T200 evaluation software following standard procedures. Kinetic parameters were determined from the fitting algorithm. This assay was performed at the clone supernatant and purified antibody stage.\nAffinity was required to be <100 nM to be considered for progression."}, "[12]": {"target": "T2, human CD1d expressed on HEK-293 cells", "assay": "flow cytometry, HEK-293 cells, 3.16 µg/ml antibody", "procedure": "as §3, §4"}, "[13]": {"target": "T5, human CD1a expressed on cells", "assay": "flow cytometry, HEK-293 cells, 3.16 µg/ml antibody", "procedure": "as §3, §4"}, "[14]": {"target": "T3, human CD1c expressed on HEK-293 cells", "assay": "flow cytometry, HEK-293 cells, 3.16 µg/ml antibody", "procedure": "as §3, §4"}, "[15]": {"target": "T5, human CD1a expressed on cells", "assay": "flow cytometry, MOLT4 cells, 1 µg/ml antibody", "procedure": "as §5, §6"}, "[16]": {"target": "chimeric CD1a pool B protein [human CD1a lipid binding domain, mouse CD1d Ig domain] (human; mouse, UniProt P06126 18-201; P11609 205-297, limits assumed)", "sequence (P06126 other isoform, or with tags, fused parts or gaps mutant limits assumed)": "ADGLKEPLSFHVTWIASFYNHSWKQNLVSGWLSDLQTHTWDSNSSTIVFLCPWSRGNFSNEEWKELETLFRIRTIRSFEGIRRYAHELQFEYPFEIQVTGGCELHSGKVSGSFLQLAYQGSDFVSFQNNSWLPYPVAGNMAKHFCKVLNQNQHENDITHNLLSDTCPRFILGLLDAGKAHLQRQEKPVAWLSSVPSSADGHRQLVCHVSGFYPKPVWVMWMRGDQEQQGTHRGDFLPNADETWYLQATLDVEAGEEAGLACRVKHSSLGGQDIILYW", "assay": "ELISA, 3.16 µg/ml antibody", "procedure": "as §1\nThe antibodies were titrated through a dilution series and compared to a control rabbit IgG antibody. […] Data shown for purified antibodies."}, "[17]": {"target": "T2, human CD1d expressed on HEK-293 cells", "assay": "flow cytometry, HEK-293 cells, 0.0316 µg/ml antibody", "procedure": "as §3, §4"}, "[18]": {"target": "T5, human CD1a expressed on cells", "assay": "flow cytometry, HEK-293 cells, 0.0316 µg/ml antibody", "procedure": "as §3, §4"}, "[19]": {"target": "T3, human CD1c expressed on HEK-293 cells", "assay": "flow cytometry, HEK-293 cells, 0.0316 µg/ml antibody", "procedure": "as §3, §4"}, "[20]": {"target": "T4, human CD1b expressed on HEK-293 cells", "assay": "flow cytometry, HEK-293 cells, 0.0316 µg/ml antibody", "procedure": "as §3, §4"}, "[21]": {"target": "T2, human CD1d expressed on HEK-293 cells", "assay": "flow cytometry, HEK-293 cells, 0.1 µg/ml antibody", "procedure": "as §3, §4"}, "[22]": {"target": "T5, human CD1a expressed on cells", "assay": "flow cytometry, HEK-293 cells, 0.1 µg/ml antibody", "procedure": "as §3, §4"}, "[23]": {"target": "T3, human CD1c expressed on HEK-293 cells", "assay": "flow cytometry, HEK-293 cells, 0.1 µg/ml antibody", "procedure": "as §3, §4"}, "[24]": {"target": "T4, human CD1b expressed on HEK-293 cells", "assay": "flow cytometry, HEK-293 cells, 0.1 µg/ml antibody", "procedure": "as §3, §4"}, "[25]": {"target": "Chinese variant CD1a protein (human) (UniProt P06126)", "assay": "ELISA, 0.01 µg/ml antibody"}, "[26]": {"target": "T1, human CD1a protein (pool B)", "assay": "ELISA, 100 µg/ml antibody", "procedure": "as §1, §2"}}}
{"binder": "B1", "values": [{"measurement": "Optical Density (OD)", "setting": "[1]", "value": 1.15, "unit": "OD"}, {"measurement": "binding result", "setting": "[2]", "value": "no binding (tested: 100 µg/ml (highest tested))"}, {"measurement": "binding result", "setting": "[3]", "value": "no binding (tested: 100 µg/ml (highest tested))"}, {"measurement": "binding result", "setting": "[4]", "value": "no binding (tested: 100 µg/ml (highest tested))"}, {"measurement": "Optical Density (OD)", "setting": "[5]", "value": 1.51, "unit": "OD"}, {"measurement": "Optical Density (OD)", "setting": "[6]", "value": 1.18, "unit": "OD"}, {"measurement": "Fluorescence Intensity Geomean (normalized to background)", "setting": "[7]", "value": 5.6, "unit": "fold over background"}, {"measurement": "Fluorescence Intensity Geomean (normalized to background)", "setting": "[8]", "value": 16.9, "unit": "fold over background"}, {"measurement": "Optical Density (OD)", "setting": "[9]", "value": 1.15, "unit": "OD"}, {"measurement": "Optical Density (OD)", "setting": "[10]", "value": 0.07, "unit": "OD"}, {"measurement": "Kd", "setting": "[11]", "value": 2.89, "unit": "nM"}, {"measurement": "koff", "setting": "[11]", "value": 0.0014, "unit": "s⁻¹"}, {"measurement": "kon", "setting": "[11]", "value": 483000, "unit": "M⁻¹ s⁻¹"}, {"measurement": "Fluorescence Intensity Geomean (normalized to background)", "setting": "[12]", "value": 1.1, "unit": "fold over background"}, {"measurement": "Fluorescence Intensity Geomean (normalized to background)", "setting": "[13]", "value": 21.9, "unit": "fold over background"}, {"measurement": "Fluorescence Intensity Geomean (normalized to background)", "setting": "[14]", "value": 1.1, "unit": "fold over background"}, {"measurement": "Fluorescence Intensity Geomean (normalized to background)", "setting": "[15]", "value": 30.6, "unit": "fold over background"}, {"measurement": "Optical Density (OD)", "setting": "[16]", "value": 1.38, "unit": "OD"}, {"measurement": "Fluorescence Intensity Geomean (normalized to background)", "setting": "[17]", "value": 1, "unit": "fold over background"}, {"measurement": "Fluorescence Intensity Geomean (normalized to background)", "setting": "[18]", "value": 15.7, "unit": "fold over background"}, {"measurement": "Fluorescence Intensity Geomean (normalized to background)", "setting": "[19]", "value": 1, "unit": "fold over background"}, {"measurement": "Fluorescence Intensity Geomean (normalized to background)", "setting": "[20]", "value": 1, "unit": "fold over background"}, {"measurement": "Fluorescence Intensity Geomean (normalized to background)", "setting": "[21]", "value": 1.1, "unit": "fold over background"}, {"measurement": "Fluorescence Intensity Geomean (normalized to background)", "setting": "[22]", "value": 26.7, "unit": "fold over background"}, {"measurement": "Fluorescence Intensity Geomean (normalized to background)", "setting": "[23]", "value": 1, "unit": "fold over background"}, {"measurement": "Fluorescence Intensity Geomean (normalized to background)", "setting": "[24]", "value": 1, "unit": "fold over background"}, {"measurement": "Optical Density (OD)", "setting": "[25]", "value": 1.47, "unit": "OD"}, {"measurement": "Optical Density (OD)", "setting": "[26]", "value": 1.15, "unit": "OD"}]}
